Results on 5 molecules are retold here after article doi:10.1101/2024.12.23.630145, “Setdb1 and Atf7IP form a hetero-trimeric complex that blocks Setdb1 nuclear export” (bioRxiv, 2024).

As usually defined, the stoichiometry N is a count of units in the complex or per binding partner.

The chains are these.
B2: biotin-MBP-Atf7IP(574–666) (domain or fragment, human, UniProt Q6VMQ6 574-666, looked up)
chain: EEEYEAEFQVKITAKGDINQKLQKVIQWLLEEKLCALQCAVFDKTLAELKTRVEKIECNKRHKTVLTELQAKIARLTKRFEAAKEDLKKRHEH
modifications: biotin (on the Avi-tag)
notes: also called AviTag-MBP-Atf7IP; source: E. coli, co-expressed with birA with 40μM biotin, purified (MBPTrap, Superdex 200); not shown: AviTag, N-terminal, kept; MBP, N-terminal, kept

Series [1] addresses B2. The series can be described thus: AlphaScreen or HTRF; His-sumo-Setdb1 on nickel chelate acceptor beads, biotin-MBP-Atf7IP(574–666) on streptavidin donor beads; 20nM each, or one at 20nM and the other 0–20nM; 50mM MOPS, 50mM CHAPS, 50mM NaF, 100μg/ml BSA, pH7; room temperature. As to conditions: both partners purified.
The next series has as its target T1, His-sumo-Setdb1(2–115) (human, UniProt Q15047 2-115).
T1 construct: source: E. coli (BL21DE3 or Rosetta2), purified (HisTrap, dialysis); not shown: His6, N-terminal, kept; SUMO, N-terminal, kept
The description is as above. Conditions: both partners purified.

Series [2] concerns the molecule itself. The series can be described thus: SEC; isolated MBP-Atf7IP(574–666), gel filtration with and without Tween 20. Background: SEC sorts molecules by how far they enter the pores of the column.
The target in a further series is T2, GST-Setdb1(2–115) (human, UniProt Q15047 2-115).
T2 construct: also called GST-Setdb1(2–114); source: E. coli, purified (GSTTrap, Superdex 200); not shown: GST, N-terminal, kept
The series can be described thus: pull-down; 0.5 μM GST fusion on glutathione Sepharose beads; 1.5 μM hCRM1 with or without 4.5 μM Ran^GTP; MBP-Atf7IP(574–666) pre-incubated at 3-fold or 15-fold excess; TB buffer (20mM HEPES 7.4, 110mM potassium acetate, 2mM magnesium acetate, 10% glycerol, 2mM DTT, 0.005% Tween20); Coomassie SDS-PAGE. As to conditions: both partners purified.

The target in a further series is T3, MBP-Setdb1(2–115) (human, UniProt Q15047 2-115).
T3 construct: Printed mass 56.7 kDa; also called MBP-Setdb1(2–114); source: E. coli, co-expressed with its partners; complex purified (MBPTrap, Superdex 200); not shown: MBP, N-terminal, kept
The series can be described thus: SEC-MALS; co-expressed complex purified by MBP affinity; Superdex 200 Increase 10/300 GL; about 400 μL at ~1 mg/mL. As to conditions: both partners purified.

Series [3] deals with the molecule itself. The series can be described thus: native MS; co-expressed complex purified, exchanged into 400 mM ammonium acetate pH 7.9, 1 mM DTT; 500 nM; HCD 220 V for fragments.
Series [4] deals with the molecule itself. The series can be described thus: cross-linking; MBP-Atf7IP(574–666) C608S C612S in isolation, purified on amylose beads, non-reducing; SDS-PAGE with and without BME.

B1: 6Xhis-SUMO-Setdb1(Δα1- α2; residues 50–114) (domain or fragment, human, UniProt Q15047 50-114, looked up)
chain: KMDCVQQRKKQLAELETWVIQKESEVAHVDQLFDDASRAVTNCESLVKDFYSKLGLQYRDSSSED
notes: Setdb1, human, UniProt Q15047, residues 50–114 (helices α1 and α2 removed); source: E. coli (BL21DE3 or Rosetta2), purified (HisTrap, dialysis); not shown: His6, N-terminal, kept; SUMO, N-terminal, kept
With B1, the “binding as percent of WT” value in series [1] is ~30 % of WT.

As to B2, the binding result (with His-sumo-Setdb1(2–115); in series [2]; with GST-Setdb1(2–115)) was “binds” throughout.

B3: 6Xhis-SUMO-Atf7IP(574–666) (domain or fragment, human, UniProt Q6VMQ6 574-666, looked up)
chain: EEEYEAEFQVKITAKGDINQKLQKVIQWLLEEKLCALQCAVFDKTLAELKTRVEKIECNKRHKTVLTELQAKIARLTKRFEAAKEDLKKRHEH
notes: Printed mass 23.2 kDa; not shown: His6, N-terminal, kept; SUMO, N-terminal, kept
As for B3, the “stoichiometry N” value in the series with MBP-Setdb1(2–115) was found to be 2 Atf7IP per Setdb1. The binding result in series [3] is “binds”.

B4: MBP-Atf7IP (574–666) C608S C612S (domain or fragment, human, UniProt Q6VMQ6 574-666, looked up)
chain: EEEYEAEFQVKITAKGDINQKLQKVIQWLLEEKLSALQSAVFDKTLAELKTRVEKIECNKRHKTVLTELQAKIARLTKRFEAAKEDLKKRHEH
notes: also called Atf7IP(C631); not shown: MBP, N-terminal, kept
For B4, the binding result in series [4] was “binds”.

B5: 6Xhis-SUMO-Setdb1(Δα1; residues 35–114) (domain or fragment, human, UniProt Q15047 35-114, looked up)
chain: ISMEELRHFIDEELEKMDCVQQRKKQLAELETWVIQKESEVAHVDQLFDDASRAVTNCESLVKDFYSKLGLQYRDSSSED
notes: Setdb1, human, UniProt Q15047, residues 35–114 (helix α1 with NES#1 removed); source: E. coli (BL21DE3 or Rosetta2), purified (HisTrap, dialysis); not shown: His6, N-terminal, kept; SUMO, N-terminal, kept
As for B5, the “binding as percent of WT” value in series [1] was ~80 % of WT.
